# Source: article PMC8103790
# B1: wild-type human COX-2 (huCOX-2) (Homo sapiens) (protein)
# chain: ANPCCSHPCQNRGVCMSVGFDQYKCDCTRTGFYGENCSTPEFLTRIKLFLKPTPNTVHYILTHFKGFWNVVNNIPFLRNAIMSYVLTSRSHLIDSPPTYNADYGYKSWEAFSNLSYYTRALPPVPDDCPTPLGVKGKKQLPDSNEIVEKLLLRRKFIPDPQGSNMMFAFFAQHFTHQFFKTDHKRGPAFTNGLGHGVDLNHIYGETLARQRKLRLFKDGKMKYQIIDGEMYPPTVKDTQAEMIYPPQVPEHLRFAVGQEVFGLVPGLMMYATIWLREHNRVCDVLKQEHPEWGDEQLFQTSRLILIGETIKIVIEDYVQHLSGYHFKLKFDPELLFNKQFQYQNRIAAEFNTLYHWHPLLPDTFQIHDQKYNYQQFIYNNSILLEHGITQFVESFTRQIAGRVAGGRNVPPAVQKVSQASIDQSRQMKYQSFNEYRKRFMLKPYESFEELTGEKEMSAELEALYGDIDAVELYPALLVEKPRPDAIFGETMVEVGAPFSLKGLMGNVICSPAYWKPSTFGGEVGFQIINTASIQSLICNNVKGCPFTSFSVPDPELIKTVTINASSSRSGLDDINPTVLLKERSTEL
# Substrate: CCCCC/C=C\C/C=C\C/C=C\C/C=C\CCCC(=O)O
# Test: purified protein
# Conditions: heme cyclooxygenase channel
protein,measurement,value
B1,Km,17.7 ± 1.9 µM
